Assay results as given in patent publication US20240392262A1, “TRANSPOSASE AND USES THEREOF” (Poseida Therapeutics, Inc., published 2024).

Key:
Assay in all cases: cell_activity; split GFP integration
Details in all cases: tags: 3xFlag, SV40 NLS; chain copies: 2
GFP1 Left TAL-PBx = biological target: T1, GFP1 Left TAL-PBx (synthetic construct)
T1 chain: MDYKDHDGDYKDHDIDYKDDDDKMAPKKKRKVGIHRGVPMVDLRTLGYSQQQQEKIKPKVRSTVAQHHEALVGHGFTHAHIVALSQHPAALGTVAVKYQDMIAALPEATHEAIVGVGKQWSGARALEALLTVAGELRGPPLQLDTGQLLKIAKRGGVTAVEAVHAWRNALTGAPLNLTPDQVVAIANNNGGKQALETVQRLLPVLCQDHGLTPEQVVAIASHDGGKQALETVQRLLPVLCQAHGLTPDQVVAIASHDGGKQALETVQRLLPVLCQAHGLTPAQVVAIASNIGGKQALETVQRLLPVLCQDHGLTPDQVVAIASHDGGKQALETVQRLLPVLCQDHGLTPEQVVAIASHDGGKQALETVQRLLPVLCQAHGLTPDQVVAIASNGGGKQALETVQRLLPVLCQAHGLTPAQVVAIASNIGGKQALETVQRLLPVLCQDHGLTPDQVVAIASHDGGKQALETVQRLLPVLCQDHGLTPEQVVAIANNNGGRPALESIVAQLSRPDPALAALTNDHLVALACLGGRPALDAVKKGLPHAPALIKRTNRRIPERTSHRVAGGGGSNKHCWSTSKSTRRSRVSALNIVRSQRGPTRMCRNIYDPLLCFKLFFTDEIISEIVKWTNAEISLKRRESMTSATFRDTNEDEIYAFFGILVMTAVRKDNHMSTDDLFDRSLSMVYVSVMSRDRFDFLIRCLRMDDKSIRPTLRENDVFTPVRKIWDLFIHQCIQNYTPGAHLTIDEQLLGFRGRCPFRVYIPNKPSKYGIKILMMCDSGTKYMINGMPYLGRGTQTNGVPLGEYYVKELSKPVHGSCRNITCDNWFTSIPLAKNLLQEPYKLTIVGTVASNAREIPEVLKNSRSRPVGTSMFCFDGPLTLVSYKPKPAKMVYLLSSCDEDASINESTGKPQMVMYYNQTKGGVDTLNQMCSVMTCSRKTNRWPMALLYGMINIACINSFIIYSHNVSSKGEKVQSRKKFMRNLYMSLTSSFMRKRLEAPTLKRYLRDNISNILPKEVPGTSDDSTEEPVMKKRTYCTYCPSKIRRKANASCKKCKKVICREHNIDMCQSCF
Procedure: (§1) To determine if the optimal spacer length is consistent from one TAL-ssSPB to the next, similar reporters were constructed with TAL target sites for the GFP1 Left, GFP2 Right, GFP2 Left, and ZFM268 TAL-PBxs as described above. These constructs were tested using a narrower set of spacer lengths of 11 bp, 12 bp, 13 bp, 14 bp, 15 bp constructs for GFP1 Left (SEQ ID Nos. 345-349), GFP2 Left (SEQ ID Nos. 350-354), GFP2 Right (SEQ ID Nos. 355-359) and ZFM268 (SEQ ID NOs: 340-344).
(§2) Each reporter plasmid and the donor plasmid were cotransfected into HEK293T cells with the corresponding TAL-ssSPB expression plasmid. 120,000 HEK293T cells were plated in 24 well plates in 500 ul of DMEM medium supplemented with 10% FBS. The following day, a transfection mixture containing 50 ng of the TAL-ssSPB expression vector, 225 ng of the reporter plasmid, 225 ng of donor plasmid and 1 μl of JetPrime transfection reagent in a total volume of 50 μl of JetPrime buffer were assembled. The mixture was added to the HEK293T cells and the cells were incubated for four days at 37° C. at 5% CO2, splitting the cells 1:6 at day one. The percentage of on-target site-specific transposition positive cells for the various spacer length constructs were determined by FACS analysis and the results are shown in Table 18.

ZFM268 TAL-PBx = biological target: T2, ZFM268 TAL-PBx (synthetic construct)
T2 chain: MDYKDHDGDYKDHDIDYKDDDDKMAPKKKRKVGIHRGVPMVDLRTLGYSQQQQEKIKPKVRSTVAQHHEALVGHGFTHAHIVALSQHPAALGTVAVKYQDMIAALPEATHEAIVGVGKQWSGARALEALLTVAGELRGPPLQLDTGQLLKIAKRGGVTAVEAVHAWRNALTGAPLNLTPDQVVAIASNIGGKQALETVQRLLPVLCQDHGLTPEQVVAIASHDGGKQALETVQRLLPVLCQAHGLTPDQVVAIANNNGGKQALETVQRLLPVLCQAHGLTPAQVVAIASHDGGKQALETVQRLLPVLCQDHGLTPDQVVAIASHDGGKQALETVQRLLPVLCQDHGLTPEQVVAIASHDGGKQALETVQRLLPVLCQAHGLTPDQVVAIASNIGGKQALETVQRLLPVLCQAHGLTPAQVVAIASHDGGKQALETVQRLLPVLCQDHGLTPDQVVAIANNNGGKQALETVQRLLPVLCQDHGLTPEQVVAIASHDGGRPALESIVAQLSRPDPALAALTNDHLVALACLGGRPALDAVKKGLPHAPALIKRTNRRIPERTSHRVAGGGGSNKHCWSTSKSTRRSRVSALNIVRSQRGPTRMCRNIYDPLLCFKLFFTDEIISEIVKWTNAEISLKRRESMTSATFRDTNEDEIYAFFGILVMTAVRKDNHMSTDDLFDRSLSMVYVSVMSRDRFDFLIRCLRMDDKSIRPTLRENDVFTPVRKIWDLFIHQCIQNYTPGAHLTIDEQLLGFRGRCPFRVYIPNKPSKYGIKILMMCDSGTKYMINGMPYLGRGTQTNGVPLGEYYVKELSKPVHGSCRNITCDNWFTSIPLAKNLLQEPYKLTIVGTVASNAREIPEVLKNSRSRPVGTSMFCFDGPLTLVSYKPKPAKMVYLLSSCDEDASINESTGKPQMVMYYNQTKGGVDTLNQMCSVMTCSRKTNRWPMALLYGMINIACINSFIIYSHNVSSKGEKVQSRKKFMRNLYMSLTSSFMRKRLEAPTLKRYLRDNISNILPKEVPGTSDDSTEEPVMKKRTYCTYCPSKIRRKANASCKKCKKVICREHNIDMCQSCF
Procedure: as §1, §2

GFP2 Right TAL-PBx = biological target: T3, GFP2 Right TAL-PBx (synthetic construct)
T3 chain: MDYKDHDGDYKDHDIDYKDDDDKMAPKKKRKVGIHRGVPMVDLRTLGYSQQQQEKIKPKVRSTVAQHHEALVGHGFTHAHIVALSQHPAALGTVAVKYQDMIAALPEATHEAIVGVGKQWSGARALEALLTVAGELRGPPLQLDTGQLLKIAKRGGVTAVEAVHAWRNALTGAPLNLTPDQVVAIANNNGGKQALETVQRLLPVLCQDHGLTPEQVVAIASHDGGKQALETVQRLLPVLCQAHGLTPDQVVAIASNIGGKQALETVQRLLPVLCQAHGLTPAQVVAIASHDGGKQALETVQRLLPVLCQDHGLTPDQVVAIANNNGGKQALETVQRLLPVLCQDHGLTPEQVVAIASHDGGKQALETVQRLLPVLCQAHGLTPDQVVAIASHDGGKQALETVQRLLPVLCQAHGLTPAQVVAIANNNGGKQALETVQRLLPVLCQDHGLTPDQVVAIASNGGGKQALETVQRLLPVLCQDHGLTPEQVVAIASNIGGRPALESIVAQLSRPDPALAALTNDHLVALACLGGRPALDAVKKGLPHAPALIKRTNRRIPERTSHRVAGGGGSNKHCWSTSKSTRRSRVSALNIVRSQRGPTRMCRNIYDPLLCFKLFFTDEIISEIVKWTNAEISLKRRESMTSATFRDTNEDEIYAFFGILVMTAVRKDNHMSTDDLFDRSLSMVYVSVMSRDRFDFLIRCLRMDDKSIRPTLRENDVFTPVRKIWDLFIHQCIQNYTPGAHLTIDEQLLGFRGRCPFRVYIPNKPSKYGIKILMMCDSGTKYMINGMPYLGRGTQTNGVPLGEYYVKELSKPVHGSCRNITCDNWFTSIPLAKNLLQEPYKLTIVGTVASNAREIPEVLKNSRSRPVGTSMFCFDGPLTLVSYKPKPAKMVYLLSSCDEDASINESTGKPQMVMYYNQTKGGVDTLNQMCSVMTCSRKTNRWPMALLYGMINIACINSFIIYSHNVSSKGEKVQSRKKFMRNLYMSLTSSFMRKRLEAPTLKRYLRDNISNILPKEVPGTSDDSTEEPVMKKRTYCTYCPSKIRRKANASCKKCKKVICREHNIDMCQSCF
Procedure: as §1, §2

GFP2 Left TAL-PBx = biological target: T4, GFP2 Left TAL-PBx (synthetic construct)
T4 chain: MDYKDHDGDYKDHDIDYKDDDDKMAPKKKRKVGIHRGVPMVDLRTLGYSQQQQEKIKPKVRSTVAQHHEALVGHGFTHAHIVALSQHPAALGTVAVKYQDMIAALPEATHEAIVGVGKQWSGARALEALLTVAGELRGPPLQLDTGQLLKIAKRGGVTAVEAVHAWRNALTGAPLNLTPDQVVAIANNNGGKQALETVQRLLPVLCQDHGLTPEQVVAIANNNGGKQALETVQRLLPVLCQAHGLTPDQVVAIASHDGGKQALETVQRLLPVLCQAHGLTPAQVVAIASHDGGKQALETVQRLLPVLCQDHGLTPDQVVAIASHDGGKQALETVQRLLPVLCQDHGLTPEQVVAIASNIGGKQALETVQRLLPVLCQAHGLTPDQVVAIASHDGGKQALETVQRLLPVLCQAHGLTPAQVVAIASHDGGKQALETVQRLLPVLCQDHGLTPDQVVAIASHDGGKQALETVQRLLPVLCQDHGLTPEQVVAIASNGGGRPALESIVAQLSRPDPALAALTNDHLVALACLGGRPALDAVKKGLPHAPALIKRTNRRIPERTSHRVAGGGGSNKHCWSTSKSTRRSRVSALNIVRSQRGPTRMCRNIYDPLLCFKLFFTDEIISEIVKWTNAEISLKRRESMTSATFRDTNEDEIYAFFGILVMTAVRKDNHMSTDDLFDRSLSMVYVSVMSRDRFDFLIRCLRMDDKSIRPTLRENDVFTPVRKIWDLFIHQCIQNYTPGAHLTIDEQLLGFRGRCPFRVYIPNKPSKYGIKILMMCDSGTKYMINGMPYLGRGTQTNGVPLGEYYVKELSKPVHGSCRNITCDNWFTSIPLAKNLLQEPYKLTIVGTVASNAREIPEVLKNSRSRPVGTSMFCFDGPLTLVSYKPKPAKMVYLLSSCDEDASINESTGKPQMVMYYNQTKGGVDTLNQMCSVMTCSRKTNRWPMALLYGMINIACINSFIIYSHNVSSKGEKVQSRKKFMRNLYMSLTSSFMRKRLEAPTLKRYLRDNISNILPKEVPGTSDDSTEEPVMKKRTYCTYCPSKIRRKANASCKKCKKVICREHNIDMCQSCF
Procedure: as §1, §2

B1: GFP1L 12 bp spacer (dsDNA)
DNA 1: TGCCACCTACGGCAATCTCCGGCTTAACTACTGACTGAACGTAGGTGGCA
DNA 2: TGCCACCTACGTTCAGTCAGTAGTTAAGCCGGAGATTGCCGTAGGTGGCA
Work on B1 yielded an activity (GFP1 Left TAL-PBx) of 13.7 % GFP+.

B2: ZFM268 TAL 12 bp spacer (dsDNA)
DNA 1: TACGCCCACGCGCAATCTCCGGCTTAACTACTGACTGAAGCGTGGGCGTA
DNA 2: TACGCCCACGCTTCAGTCAGTAGTTAAGCCGGAGATTGCGCGTGGGCGTA
B2 gave an activity (ZFM268 TAL-PBx) of 21.8 % GFP+.

B3: GFP2R 12 bp spacer (dsDNA)
DNA 1: TGCACGCCGTAGCAATCTCCGGCTTAACTACTGACTGAATACGGCGTGCA
DNA 2: TGCACGCCGTATTCAGTCAGTAGTTAAGCCGGAGATTGCTACGGCGTGCA
B3 showed an activity (GFP2 Right TAL-PBx) of 16.9 % GFP+.

B4: GFP1L 13 bp spacer (dsDNA)
DNA 1: TGCCACCTACGGCAATCTCACGGCTTAACTACTGACCTGAACGTAGGTGGCA
DNA 2: TGCCACCTACGTTCAGGTCAGTAGTTAAGCCGTGAGATTGCCGTAGGTGGCA
B4 was tested, and the activity (GFP1 Left TAL-PBx) was 17 % GFP+.

B5: GFP2L 12 bp spacer (dsDNA)
DNA 1: TGGCCCACCCTGCAATCTCCGGCTTAACTACTGACTGAAAGGGTGGGCCA
DNA 2: TGGCCCACCCTTTCAGTCAGTAGTTAAGCCGGAGATTGCAGGGTGGGCCA
For B5, the activity (GFP2 Left TAL-PBx) was 22.4 % GFP+.

B6: GFP2L 13 bp spacer (dsDNA)
DNA 1: TGGCCCACCCTGCAATCTCACGGCTTAACTACTGACCTGAAAGGGTGGGCCA
DNA 2: TGGCCCACCCTTTCAGGTCAGTAGTTAAGCCGTGAGATTGCAGGGTGGGCCA
For B6, the activity (GFP2 Left TAL-PBx) was 23.5 % GFP+.

B7: ZFM268 TAL 13 bp spacer (dsDNA)
DNA 1: TACGCCCACGCGCAATCTCACGGCTTAACTACTGACCTGAAGCGTGGGCGTA
DNA 2: TACGCCCACGCTTCAGGTCAGTAGTTAAGCCGTGAGATTGCGCGTGGGCGTA
B7 showed an activity (ZFM268 TAL-PBx) of 21.2 % GFP+.

B8: GFP2R 13 bp spacer (dsDNA)
DNA 1: TGCACGCCGTAGCAATCTCACGGCTTAACTACTGACCTGAATACGGCGTGCA
DNA 2: TGCACGCCGTATTCAGGTCAGTAGTTAAGCCGTGAGATTGCTACGGCGTGCA
Binder B8 has an activity (GFP2 Right TAL-PBx) of 15.8 % GFP+.
